According to patent US20240245805A1 (Orna Therapeutics, Inc., priority 2020, published 2024):

B1: Human rhinovirus 1 (nucleic acid, listed as Rhinovirus sp.)
DNA: TTAAAACTGGGTGTGGGTTGTTCCCACCCACACCACCCAATGGGTGTTGTACTCTGTTATTCCGGTAACTTTGTACGCCAGTTTTTCCCTCCCCTCCCCATCCTTTTACGTAACTTAGAAGTTTTAAATACAAGACCAATAGTAGGCAACTCTCCAGGTTGTCTAAGGTCAAGCACTTCTGTTTCCCCGGTTGATGTTGATATGCTCCAACAGGGCAAAAACAACAGATACCGTTATCCGCAAAGTGCCTACACAGAGCTTAGTAGGATTCTGAAAGATCTTTGGTTGGTCGTTCAGCTGCATACCCAGCAGTAGACCTTGCAGATGAGGCTGGACATTCCCCACTGGTAACAGTGGTCCAGCCTGCGTGGCTGCCTGCGCACCTCTCATGAGGTGTGAAGCCAAAGATCGGACAGGGTGTGAAGAGCCGCGTGTGCTCACTTTGAGTCCTCCGGCCCCTGAATGCGGCTAACCTTAAACCTGCAGCCATGGCTCATAAGCCAATGAGTTTATGGTCGTAACGAGTAATTGCGGGATGGGACCGACTACTTTGGGTGTCCGTGTTTCACTTTTTCCTTTATTAATTGCTTATGGTGACAATATATATATTGATATATATTGGCATC
B2: Guereza hepacivirus (nucleic acid, listed as Hepacivirus sp.)
chain: CACTCAATACTACACTCCGCATTTGGGGAGAAGCGCTGGCGTTCGCGGAACCGCGTTAACCATACGCGTAGTACGAGTGCGACAGACCCCGGTGCTACTGGTGGTAGCGAGACACGAGCCGAAGTCTGTGGGGGGAACTCCACTTAGAGGGCATGCCCGGGCGTAGGCTTCTGAGTTGGGATGGGCCCCAACTTGGCCCCTGAGTGGGGGGGTGTTACGACCTGATAGGGTGCGGGCTGGCGCCTACCACTTTCCAGTCGTACATGAGTC
modifications: lipid formulation
B3: Hubei tombus-like virus 9 (nucleic acid)
DNA: GGACCATCCAGGCAGGTGTAGGCTAGTACCCTCACCTGACCTGTCGCGATGTTTGGCTTTGTGAGGCTTGTGGGAGGATCCCTTGGCCCATGCATTGCTGCTGTCATCGTGAAAAATGTTGTATGCTCGCACCTGGCGTGGAGGAAACGGCATTTGACGGATGCTAAGGAGGATTTGAAGGTCCTCAACTCCCATGCCTTATTACAAGTCCCCTTTCCTTCAAGCTTCGAGCCCACGTCTGTGACGAGCAGAGGTGAGGTTGGAGTCAAGAGGAGTCCTATTCAAGCTGTTCGCAGCAAGAACCATAAAACTTTCATTGCTCAATGGGCAAGAGCGGCTAAGGCTCGGTTCTCGTTTGCACGACAGTGTGAGCGGAGCCCTGTAAATGTCGCGGCCCTTCATCGGTGGTTTGCATCGGAGTTTAAGAAAATTGGCATGAACTTGCTCCAGGTTTCGTACGTGATCGATGAGGTTGTTGAACTTAGTTTGGAACCAACGTATGAGCGTATGGTGTCCGAAACTAAGAAGCAATTCCGTCATCGGGCACGTATGGAATACTACAACGAGAAAAAATGCCTTGAAAAGATCCACTAGGAACGC
modifications: source: /note="Description of Unknown: Hubei tombus-like virus 9 sequence"
B4: Feline infectious peritonitis virus (nucleic acid)
chain: ACTTTTAAAGTAAAGTGAGTGTAGCGTGGCTATAACTCTTCTTTTACTTTAACTAGCCTTGTGCTAGATTTGTCTTCGGACACCAACTCGAACTAAACGAAATATTTGTCTCTCTATGAAACCATAGAAGACAAGCGTTGATTATTTCACCAGTTTGGCAATCACTCCTAGGAACGGGGTTGAGAGAACGGCGCACCAGGGTTCCGTCCCTGTTTGGTAAGTCGTCTAGTATTAGCTGCGGCGGTTCCGCCCGTCGTAGTTGGGTAGACCGGGTTCCGTCCTGTGATCTCCCTCGCCGGCCGCCAGGAGA
modifications: lipid formulation; source: /note="Description of Unknown: Feline infectious peritonitis virus sequence"
B5: Grapevine associated narnavirus-1 (nucleic acid, listed as Narnavirus sp.)
chain: GCCCGGGGGGTGCAGTCCTGTGAAAGGGTCTGCACCATACTATATATGTATATGATTACATCCCAAAAGGCGACTTCGTTCAGGTTTTAAATCTGACGTAGGTCCAGTAAATAAGCATGTCAAAACATGTAAGTTTATCCTGTAATCTACTCTCATAAGATGAGATAAGATGATATTGCAGTTCCCATGTAAATAAATCCATTATGAATTCATTCATATAAGGTAGAAGTGGTAACTATGGTTGAAACATTAATATAAAACGGTCATTTTGCATGAACGTCATTAAGGAACTGGCATACCAATGTCTATTTAGTGACTATGATATTTAGAGTATCCCTTATATTAATTAACAATTATTCCTTTTAGCATATCATCCGACAACAAATTTTAAAAGAAGAAATATTACTCATTAAAA
modifications: lipid formulation
B6: Farmington virus (nucleic acid)
chain: ACGACGCATAAGCAGAGAAACATAAGAGACTATGTTCATAGTCACCCTGTATTCATTATTGACTTTTATGACCTATTATTAGACCCTTCACGGGTAAATCCTTCTCCTTGCAGTTCTCGCCAAGTACCTCCAAAGTCAGAACG
modifications: lipid formulation; source: /note="Description of Unknown: Farmington virus sequence"
B7: Hubei zhaovirus-like virus 1 (nucleic acid)
DNA: GTGCAGGATGGCCTTTCCCATCTTAAGTGGTTTGTAGGATTTCGTGGGTCCATACCCCCCGATTTCTTGGTACGTATTCCATGCACGGAGAATACGACCAAAACTCTTATTTCAAAAAATATTATTTTTTACTCTTGTGGGCTGAGTGCGACCCACCAGTTCCAGCTTAGCAACCTGGAAGTTGTTGGAGATTTATGGAACCAAATTACACATGCGTGGAGTGCCGCCACTCCGTATCTGTTCACTCATTACGCGATTAAGTTCTGCGACGAGACGAGCGAA
modifications: source: /note="Description of Unknown: Hubei zhaovirus-like virus 1 sequence"
B8: Human TMEV-like cardiovirus (nucleic acid, listed as Cardiovirus sp.)
DNA: TCCGACGTGGTTGGAATTAACATCTTTTCCGACGAAAGTGCTATTATGCCTCCCCGATTGTGTGATGCTTTCTGCCCTGCTGGGCGGAGCGTCCTCGGGTTGAGAAACCTTGAATCTTTTCCTTTGGAGCCTTGGCTCCCCCGGTCTAAGCCGCTTGGAATATGACAGGGTTATTTTCCAAACTCTTTATTTCTACTTTCATGGGTTCTATCCATGAAAAGGGTATGTGTTGCCCCTTCCTTCTTTGGAGAATCTGCGCGGCGGTCTTTCCGTCTCTCAACAGGCGTGGATGCAACATGCCGGAAACGGTGAAGAAAACAGTTTTCTGTGGAAATTTAGAGTGGACATCGAAACAGCTGTAGCGACCTCACAGTAGCAGCGGATTCCCCTCTTGGCGACAAGAGCCTCTGCGGCCAAAAGCCCCGTGGATAAGATCCACTGCTGTGAGCGGTGCAACCCCAGCACCCTGGTTCGATGGCCATTCTCTATGGAACCAGAAAATGGTTTTCTCAAGCCCTCCGGTAGAGAAGCCAAGAATGTCCTGAAGGTACCCCGCGCGCGGGATCTGATCAGGAGACCAATTGGCAGTGCTTTACGCTGCCACTTTGGTTTAAAAACTGTCACAGCTTCTCCAAACCAAGTGGTCTTGGTTTTCCAATTTTGTTGACTGACAAT
B9: Poecivirus BCCH-449 (nucleic acid, listed as Poecivirus sp.)
DNA: ACTACACAATCGCAACACGCGCAAGTTTGTAGTTTGATTGGCGTGCAAATGTCAAATCAAGCATATAACACAATTTGGTGGCTGTTGGTGTTTGTTATAGGAATTTTGGTTGTGTTGAAATTGTGGATGTGTAGGAAATATGCACAATTACGTCAGCGTCAGGAGTTTTATAACCTGGCGCAACACCAAAATGGTCTTCGCGCTTTAACATCACCAGCGAGGTGTAAACAAATTGAAGTTGAATTAGATCGTGTATAGGCCAGGGAACCATCCCTCCCAACGCCACATCTTGTGGGGAAGTTGGGATAATGGTGGGTCTATATGAATTGGTCTGTAGACCCACAGTGAAGAGTGAATAGTATGCTTGCGGTTCCATTTGTTAATGGTCTAGCATGGGTGGGGGCGGCAACCCCGTGAGGGGTTCCCCACTGGCCAAAAGCCCAGGGGTTAGTCATTTCAACCAAGGAAGCTGGTAACCTGGTGACCTGAACTTGAGTGGTGAGACCCCCTTGCTAGAGTGTGTAAACCGATTGTAAGCATTTTGTTTGCTTAGTATCTGTGGTATAAGCAGTCAATTTTGTATAGGCTCAAGGCTGTGGTAGTTAGTAGATGCCCGGAAGGTTATTACTGATCCGGGGACCGTGACTATACATTAGGTAAACCGGTTTAAAAACC
modifications: lipid formulation
B10: Goat torovirus (nucleic acid, listed as Torovirus sp.)
chain: GTACTTACAAGCGGGTTAAACCGCCCTCCGGAACGGTTACAACCCCCTCCCGAACGTGCGCTTGACGTGACTGGTTCTCAGTCTGGCTTTCTGAGAAATACTCCAGGGTTGTATCCCACCATCTTGACCTCTGGTCATTTTGGTAACACCATAACCAAACAAACTCTACACACCTAACCCACCTCCAGCTTGCTGCAGGCCTTTTGGACTAAACGGGTTTAGGTGTTTTGTGACCAACTCGTCTACCCACCTCCAGTTTTACTGCAGGCCTTTTTGGACTAAACGGCTTTAGACTTTTGTGGTTAGTTTTTAACTACCCACTGTTTAGCCGCCAACCTGATTTTCATTGTTGTAAAATTTTGTGTTTATACACTATTTTCATACGGTTGGCAGTTTGTTTGGTTGTTTGCACAGTTTTTGTTGATACCAATTTTTACTGTGCTTTTAGTGTATTCTGCTAAGGCTGTATTTTACATACTTAGTTTGGTTGAAGCAATTTTTACAACATTTATATTGTTTTTGATTTCTAAGGTAAAGAGTCTTAGGAAACACCATAGACGCCATTCTTGTGGTGTCTAGTTCCAACTAATCTGGCAAACAAGTACCAAGTCATTGACTCACTTTGGAGTGAGACTTACGAGTACCAATTTGCCTATTTCGGACATCCATATAAAG
modifications: lipid formulation
B11: Hubei tombus-like virus 32 (nucleic acid)
DNA: TTCGGGTTTACCCGCGTAAGCGGCCACACTGACTGGTTGTCGGTGTTGAATTTGTATACCAGATGAGGAGACGTTACCACCGTCTCGGCAGTGCTACGTCTGGGAAAGGACTGTGATAGTGGACAGTCCTACCGTCTTTAGATACATTGCGTTGTGTATAGCCCGGGAGGGATTAACTAATAGCAACGCAATGCACACGGCGGTTCGGATTTGCTTGACTGATGGAAAGACATCTAAGTTCTAATTGAACC
modifications: source: /note="Description of Unknown: Hubei tombus-like virus 32 sequence"

The molecules below were run on HEK293 cells. Settings: circular RNA encoding Gluc with the listed IRES (UTR truncated to 675 nt) transfected into HEK293 cells; supernatant after 24 hours.
Type: cell-based, human

Row | Molecule | Expression (luminescence from secreted Gluc protein)
1 | B1 | 7.40E+07
2 | B2 | 1.38E+05
3 | B3 | 9.28E+04
4 | B4 | 1.35E+05
5 | B5 | 1.30E+05
6 | B6 | 1.22E+05
7 | B7 | 1.03E+05
8 | B8 | 4.48E+07
9 | B9 | 3.43E+05
10 | B10 | 1.19E+05
11 | B11 | 9.23E+04
